Laboratory results as given in patent US20220204630A1 (SUNSHINE LAKE PHARMA, published 2022).
Values belong to the binder of their own block, whether it stands above or below them.

Experiments:
[1] = target: T1, TrkA protein on HEK-293T-TrkA cells or NIH-3T3-TrkA cells (human, UniProt P04629 33-796); experiment: flow cytometry, antibody titrated on HEK-293T-TrKA cells, Parent %
T1 construct: whole, on cells; Printed only as TrkA for these cells; also called TrkA protein on the membrane of NIH-3T3-TrkA cells
T1 sequence (P04629 33-796): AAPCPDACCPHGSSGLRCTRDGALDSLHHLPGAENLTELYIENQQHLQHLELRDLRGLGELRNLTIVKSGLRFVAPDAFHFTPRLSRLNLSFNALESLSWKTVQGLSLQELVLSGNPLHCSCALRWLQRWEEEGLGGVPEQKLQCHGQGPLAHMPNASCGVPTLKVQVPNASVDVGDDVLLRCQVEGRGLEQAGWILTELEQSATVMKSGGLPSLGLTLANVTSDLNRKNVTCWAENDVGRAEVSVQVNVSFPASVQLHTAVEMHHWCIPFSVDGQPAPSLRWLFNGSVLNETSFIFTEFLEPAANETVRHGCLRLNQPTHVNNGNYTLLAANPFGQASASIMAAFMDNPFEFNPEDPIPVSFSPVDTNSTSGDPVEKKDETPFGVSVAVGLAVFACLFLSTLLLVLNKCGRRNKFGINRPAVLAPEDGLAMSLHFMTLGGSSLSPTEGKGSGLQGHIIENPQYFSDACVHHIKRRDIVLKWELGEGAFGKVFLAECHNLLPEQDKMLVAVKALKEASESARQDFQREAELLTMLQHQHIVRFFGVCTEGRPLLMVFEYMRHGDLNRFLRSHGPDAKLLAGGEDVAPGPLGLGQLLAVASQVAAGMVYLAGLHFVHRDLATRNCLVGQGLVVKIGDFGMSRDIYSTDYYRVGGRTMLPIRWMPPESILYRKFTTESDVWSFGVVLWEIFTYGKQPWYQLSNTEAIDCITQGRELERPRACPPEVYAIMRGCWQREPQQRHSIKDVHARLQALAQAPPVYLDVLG
From the text: (§1) In FIG. 7, the EC₅₀ (half-binding concentration) value reflects the affinity of the antibody. The smaller the EC₅₀ value, the higher the affinity of the antibody.

[2] = target: T1, TrkA protein on HEK-293T-TrkA cells or …; experiment: cell-based or functional assay
[3] = target: T2, TrKA receptor protein coated in ELISA (Examples 11 and 16) (human, UniProt P04629 33-423, limits assumed); experiment: competition ELISA: antibody titrated against biotinylated NGF binding to TrkA, OD450
T2 construct: also called Human-TrKA
T2 sequence (P04629 33-423 limits assumed): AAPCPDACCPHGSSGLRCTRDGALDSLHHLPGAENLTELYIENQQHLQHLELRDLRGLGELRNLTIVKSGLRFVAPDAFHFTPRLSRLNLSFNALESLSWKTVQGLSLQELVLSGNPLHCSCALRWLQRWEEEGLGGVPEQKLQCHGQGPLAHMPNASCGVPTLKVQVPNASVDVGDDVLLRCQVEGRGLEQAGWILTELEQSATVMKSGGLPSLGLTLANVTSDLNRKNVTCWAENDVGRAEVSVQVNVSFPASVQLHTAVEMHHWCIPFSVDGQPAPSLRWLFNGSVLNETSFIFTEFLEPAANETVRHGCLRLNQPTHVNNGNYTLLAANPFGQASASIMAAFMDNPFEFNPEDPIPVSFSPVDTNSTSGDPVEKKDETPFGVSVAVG

[4] = target: T2, TrKA receptor protein coated in ELISA …; experiment: ELISA plateau, antibody up to 20 µg/mL on TrKA
Protocol: The TrkA receptor family belongs to receptor tyrosine kinases (RTKs), including TrkA, TrkB, and TrkC, which have high homology. TrkA is a receptor tyrosine kinase of nerve growth factor (NGF) that selectively binds to NGF and is a functional receptor for NGF. In addition to the high-affinity receptor TrkA, NGF can also bind to its low-affinity receptor p75. In the test, the binding of test antibodies at different concentrations (20 μg/mL, 10 μg/mL, 5 μg/mL, 2.5 μg/mL, 1.25 μg/mL, 0.625 μg/mL, 0.313 μg/mL, 0.156 μg/mL, 0.078 μg/mL, 0.039 μg/mL, 0.019 μg/mL) to TrKA, TrKB, TrKC, and P75 respectively was detected by the ELISA method, and the specificity of the test antibody binding to the target TrKA was evaluated. In the FIG. 8, at a certain antibody concentration, the OD₄₅₀ value reflects the binding strength of the antibody to the protein. The larger the reading, the stronger the binding of the antibody to the protein. […] It can be seen that the specificity of the binding of the test antibodies to the target TrKA is very good.

[5] = target: T1, TrkA protein on HEK-293T-TrkA cells or …; experiment: flow cytometry on HEK-293T-TrKA cells
From the text: as §1

[6] = target: T3, TRKA protein with a histidine tag (human, UniProt P04629 33-423, limits assumed); experiment: BLI (Fortebio Octet RED96), His-tagged TRKA on Ni-NTA sensor, antibody 80-2.93 nM
T3 construct: it is put last here only for order; also called TRKA (50 µg/ml, 75 kDa, provided by HEC Labs); not shown: histidine tag
T3 sequence (P04629 33-423 limits assumed): as above
Protocol: They were added to each well of the sample plate. […] The KD value is the equilibrium dissociation constant between the antibody and its antigen, and the KD value is inversely proportional to the affinity. The KD value is related to the antibody concentration (the amount of antibody required for a particular experiment). The lower the KD value (the lower the concentration), the higher the affinity of the antibody. High-affinity antibodies are generally considered to be in the low nanomolar range (10⁻⁹).

[7] = target: T1, TrkA protein on HEK-293T-TrkA cells or …; experiment: flow cytometry competition: antibody titrated against biotinylated NGF binding to HEK-293T-TrkA cells, % parent
[8] = target: T4, Mouse-TrKA protein (mouse, UniProt Q3UFB7 34-420, limits assumed); experiment: ELISA, hybridoma supernatant on Mouse-TrKA
T4 construct: also called Mouse-TrKA receptor
T4 sequence (Q3UFB7 34-420 limits assumed): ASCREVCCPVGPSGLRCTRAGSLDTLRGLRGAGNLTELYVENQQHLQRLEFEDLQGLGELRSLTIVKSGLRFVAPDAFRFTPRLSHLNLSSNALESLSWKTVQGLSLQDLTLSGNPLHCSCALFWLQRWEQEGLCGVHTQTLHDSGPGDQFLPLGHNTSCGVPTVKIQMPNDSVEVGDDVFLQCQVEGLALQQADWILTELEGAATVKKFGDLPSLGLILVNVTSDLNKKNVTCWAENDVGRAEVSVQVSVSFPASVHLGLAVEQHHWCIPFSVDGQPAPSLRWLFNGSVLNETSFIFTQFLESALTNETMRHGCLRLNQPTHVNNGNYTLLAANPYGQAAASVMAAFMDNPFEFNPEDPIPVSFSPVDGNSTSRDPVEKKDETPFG
From the text: The binding of monoclonal antibodies produced by the supernatant of each positive clone to the Mouse-TrKA receptor was detected by ELISA method, and the human-mouse cross reaction of positive clones producing monoclonal antibodies was detected. In FIG. 3, the OD₄₅₀ value reflects the strength of the binding of the antibody to the protein. The larger the reading, the stronger the binding of the antibody to the protein. […] It can be seen that clones 23E12, 21E5, 15D4, and 27H3 can produce monoclonal antibodies that bind to both Human-TrKA and Mouse-TrKA, and there is a human-mouse cross reaction.

B1: 2008 chimeric antibody (antibody, human IgG4 S228P, kappa, F234A L235A, V domains shown)
VH: EVLLQQSGPELVKPGASMKISCKASVYSFTAYTMNWVKQSHGKNLEWIGLINPHNGGTRYNQKFKGKATLTLDKSSSTAYMDLLSLTSEDSAVYYCAISRYGSSSFYFDVWGAGTTVAVSS
VL: QIVLSQSPAILSASPGEKVTMTCRASSSISYMHWYQQKPGSSPKPWISATSNLASGVPARFSGSGSGTSYSLTISGVEAEDAATYYCQQWSSNPPTFGGGTNLEIKR
notes: also called 20C8
EC50 [1]: 0.136 µg/mL
IC50; p-TrkA level by AlphaLISA in NGF-stimulated NIH3T3-TrkA stable cell line [2]: 0.11 µg/mL
IC50 [3]: 0.31 µg/mL
OD450 [4]: ~3 OD450
EC50 [5]: < 1.5 µg/mL
Kd [6]: 0.115 nM
koff [6]: 6.33e-05 s⁻¹
kon [6]: 551000 M⁻¹ s⁻¹
IC50 [7]: 0.822 µg/mL

B4: mouse monoclonal antibody produced by hybridoma clone 21E5 (antibody, V domains shown)
VH: QVQLQQSGAELMKPGASMKISCKATGYTFSTYWIEWVKQRPGHGLEWIGENLPGRHITNYNEKFKGKATFTADTSSNTAYMQLSSLTSEDSAVYYCARGRGTYYFDYWGQGTPLTVSS
VL: DIVMTQAAFSTPVTLGTSASISCRSSQSLLHSNGITYLYWYLQKPGQSPQLLIYQMSNLASGVPDRFSSSGSGTDFTLRISRVEAEDVGVYYCAQNLEFPFTFGSGTKLEIK
notes: also called 21E5 (positive clone supernatant)
OD450 [8]: ~3.5 OD450

B5: mouse monoclonal antibody produced by hybridoma clone 23E12 (antibody, V domains shown)
VH: QVQLQQSGAELVRPGTSVKISCKASGYAFTNYWLGWMKQRPGHGLEWIGDFYPRTGNTFYNENFKGKVTLTADKSSNTAYMQLSSLTSEDSAVYLCARAGTGFDYWGQGTTLTVSS
VL: SIVMTQSPKSMSMSVGERVTLSCKASENVGGYVSWYQQKPDQSPKLLIYGASSRHTGVPDRFTGSGSETDFTLTISSVQAEDLAAYHCGQNYIYPFTFGGGTKLEIK
notes: also called 23E12 (positive clone supernatant)
OD450 [8]: ~3.5 OD450

B6: 1B9 chimeric antibody (antibody, human IgG4 S228P, kappa, F234A L235A, V domains shown)
VH: QVHLQQSGAELMKPGASVKISCKATGYTFNIYWIDWVKQRPGHGLEWIGEILPGSGNTHYNENFKGKATMTADTSSNTAYMQLTSLTSEDSAVYYCARTDGRGYFDYWGQGTTLTVSS
VL: DIVLTQSPASLVVSLGQRATISCRTSKSVSSSAYSYMHWYQQKPGQPPKVLIYLASNLESGVPARFSGSGSGTDFTLNIHPVEEEDAATYYCQHSRELPFTFGSGTKLEIKR
notes: expressed in CHO cells
EC50 [1]: 0.0372 µg/mL
IC50; p-TrkA level by AlphaLISA in NGF-stimulated NIH3T3-TrkA stable cell line [2]: 0.0473 µg/mL
OD450 [4]: ~3 OD450
EC50 [5]: < 1.5 µg/mL
Kd [6]: 0.899 nM
koff [6]: 0.000904 s⁻¹
kon [6]: 1.01e+06 M⁻¹ s⁻¹
IC50 [7]: 0.334 µg/mL

B8: mouse monoclonal antibody produced by hybridoma clone 15D4 (antibody, V domains shown)
VH: QVQLQQSGAELMKPGASVKISCKATGYTFSSYWIEWVKQRPGHGLEWLGEFLPRSGKTNYNEEFRGKATFTADTSSNTAYMQLSSLTSEDSAVYYCARTDPPYFGVWGAGTMVAVSS
VL: QIVLTQSPPIMSASPGEKVTMTCSASSNISYMHWYQQKSGTSPKRWIYDTSKLASGVPARFSGSGSGTSYSLTISSMEAEDAATYYCQQWSSVPLTFGAGTKLEIK
notes: also called 15D4 (positive clone supernatant)
OD450 [8]: ~3.5 OD450

B10: MNAC13 (anti-TrKA monoclonal antibody, positive control) (antibody, human IgG4 S228P, kappa, F234A L235A, V domains shown)
VH: EVQLLESGGGLVQPGGSLRLSCAASGFTFSTYTMSWARQAPGKGLEWVAYISKGGGSTYYPDTVKGRFTISRDNSKNTLYLQMNSLRAEDSAVYYCARGAMFGNDFFFPMDRWGQGTLVTVSS
VL: DIVLTQSPSSLSASVGDRVTITCSASSSVSYMHWYQQKPGQAPKLLIYTTSNLASGVPSRFSGSGSGTDYTLTISSLQPEDVATYYCHQWSSYPWTFGGGTKVEIKR
IC50; p-TrkA level by AlphaLISA in NGF-stimulated NIH3T3-TrkA stable cell line [2]: 0.16 µg/mL

B11: 2A5 chimeric antibody (antibody, human IgG4 S228P, kappa, F234A L235A, V domains shown)
VH: EVQLQQSGPELVKPGASMKISCKASGYSFTGYTMNWVKQSHGKNLEWIGLINPYNGGTNYNQKFKGKATLTVDKSSSTAYMELLSLTSEDSAVYYCAFSYYGSRGFYFDYWGQGTTLTVSS
VL: QIVLTQSPALMSASPGEKVTMTCSATSSVSYIYWYQQKPRSSPKPWIYLTSNLASGVPARFSGSGSGTSYSLTISSMEAEDAATYYCQQWSSNPPTFGGGTKLEIKR
notes: expressed in CHO cells
EC50 [1]: 0.312 µg/mL
IC50 [3]: 1.06 µg/mL
OD450 [4]: ~3 OD450
EC50 [5]: < 1.5 µg/mL
Kd [6]: 0.0162 nM
koff [6]: 3.6e-06 s⁻¹
kon [6]: 222000 M⁻¹ s⁻¹
IC50 [7]: 4.8 µg/mL

The next lines start with the values.

binding result [8]: no binding
B2: mouse monoclonal antibody produced by hybridoma clone 2008 (antibody, V domains shown)
VH: EVLLQQSGPELVKPGASMKISCKASVYSFTAYTMNWVKQSHGKNLEWIGLINPHNGGTRYNQKFKGKATLTLDKSSSTAYMDLLSLTSEDSAVYYCAISRYGSSSFYFDVWGAGTTVAVSS
VL: QIVLSQSPAILSASPGEKVTMTCRASSSISYMHWYQQKPGSSPKPWISATSNLASGVPARFSGSGSGTSYSLTISGVEAEDAATYYCQQWSSNPPTFGGGTNLEIK

OD450 [8]: ~3.5 OD450
B3: mouse monoclonal antibody produced by hybridoma clone 27H3 (antibody, V domains shown)
VH: QVQLQQSGAELMKPGASVKISCKTTGYRFSSYWIEWVKQRPGHGLEWLGEILPGRGIINYNENFRGKATFTADTSSNTAYVQLSSLTSEDSAVYFCARTDPPYFGVWGAGTTVTVSS
VL: QAVVTQESALTTSPGETVTLTCRSSTGAVTISNYANWVQEKPDHLFTGLIGGTNNRPPGVPARFSGSLIGDKAALTITGAQTEDEAIYFCVLWYSNHWVFGGGTKLTVL
notes: also called 27H3 (positive clone supernatant)

binding result [8]: no binding
B7: mouse monoclonal antibody produced by hybridoma clone 1B9 (antibody, V domains shown)
VH: QVHLQQSGAELMKPGASVKISCKATGYTFNIYWIDWVKQRPGHGLEWIGEILPGSGNTHYNENFKGKATMTADTSSNTAYMQLTSLTSEDSAVYYCARTDGRGYFDYWGQGTTLTVSS
VL: DIVLTQSPASLVVSLGQRATISCRTSKSVSSSAYSYMHWYQQKPGQPPKVLIYLASNLESGVPARFSGSGSGTDFTLNIHPVEEEDAATYYCQHSRELPFTFGSGTKLEIK
notes: also called 1B9 (positive clone supernatant)

binding result [8]: no binding
B9: mouse monoclonal antibody produced by hybridoma clone 4H4 (antibody, V domains shown)
VH: EVQLQQSGPELVKPGASMKISCKASGYSFTGYTMNWVKQSHGKNLEWIGLINPYNGGTRYNQKFKGKATLTVDKSSSTAYMELLSLTSEDSAVYYCASSSYRNDGNWYFDVWGAGTTVTVSS
VL: DIVMTQSPAIMSASPGEKVTMTCSASSSVSYMHWYQQKSGTSPKRWIYDTSKLASGVPARFSGSGSGTSYSLTISSMETEDAATYYCQQWSSNPPTFGGGTKLELK
notes: also called 4H4 (positive clone supernatant)

binding result [8]: no binding
B12: mouse monoclonal antibody produced by hybridoma clone 2A5 (antibody, V domains shown)
VH: EVQLQQSGPELVKPGASMKISCKASGYSFTGYTMNWVKQSHGKNLEWIGLINPYNGGTNYNQKFKGKATLTVDKSSSTAYMELLSLTSEDSAVYYCAFSYYGSRGFYFDYWGQGTTLTVSS
VL: QIVLTQSPALMSASPGEKVTMTCSATSSVSYIYWYQQKPRSSPKPWIYLTSNLASGVPARFSGSGSGTSYSLTISSMEAEDAATYYCQQWSSNPPTFGGGTKLEIK
notes: also called 2A5 (positive clone supernatant)

binding result [8]: no binding
B13: mouse monoclonal antibody produced by hybridoma clone 22D12 (antibody, V domains shown)
VH: EVQLQQSGPELVKPGASMKISCKASGYSITGYTMNWVKQSHGKNLEWIGLVNPYNGGTSYNQKFKGKATLTVDKSSSTAYMELLSLKSEDSAVYYCAISRYGSESWYFDVWGAGTTVTVSS
VL: QIVLSQSPAILSASPGEKVTMTCRATSSVSYMYWYQQKPGSSPKPWIYATSNLASGVPARFSGSGSGTSYSLTISRVEAEDAATYYCQQWSSNPPTFGGGTKLEKK
notes: also called 22D12 (positive clone supernatant)
